In patent US20090172842:

Target: T1, endogenous tobacco RUBISCO small subunit, P69249
T1 chain: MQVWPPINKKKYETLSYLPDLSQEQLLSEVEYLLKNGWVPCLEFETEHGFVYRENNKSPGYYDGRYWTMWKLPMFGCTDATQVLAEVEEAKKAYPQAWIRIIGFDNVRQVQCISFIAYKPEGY

B1: Griffithsia monilis RUBISCO large subunit with C-terminal 6-His tag, product of the chloroplast transgene cpGMNrbcL (pTCP104 tobacco) (protein)
chain: MANSVEERTRIKNERYESGVIPYAKMGYWDPNYAVKDTDILALFRVSPQPGVDPVEASAAVAGESSTATWTVVWTDLLTACDLYRAKAYKVESVPNTSDQYFAYISYDIDLFEEGSIANLTASIIGNVFGFKAVKALRLEDMRIPVAYLKTFQGPATGIVVERERMDKFGRPFLGATVKPKLGLSGKNYGRVVYEGLRGGLDFLKDDENINSQPFMRWKERFLYSIEAVNRSIAATGEVKGHYMNVTAATMEEMYERAEFAKQLGTVIIMIDLVIGYTAIQTMGIWARKNDMILHLHRAGNSTYSRQKIHGMNFRVICKWMRMAGVDHIHAGTVVGKLEGDPLMIRGFYNTLLLPYLEVNLPQGIFFQQDWASLRKVTPVASGGIHCGQMHQLLDYLGNDVVLQFGGGTIGHPDGIQAGATANRVALESMVIARNEGRDYVAEGPQILRDAAKTCGPLQTALDLWKDITFNYTSTDTADFVETPTANVHHHHHH
- RUBISCO Activity (RuBP-dependent 14CO2 fixation), pTCP104-1 tobacco crude extract: 0 mU/mg
- RUBISCO Activity (RuBP-dependent 14CO2 fixation), pTCP104-1 tobacco purified rubisco: 2.1 mU/mg
